Measured values as given in US20100068208A1, “Degranulation inhibitor” (priority 2005, published 2010).
Each block holds one molecule with its values, some of them ahead of it. Where no end group is shown, it is not given here.

Assays:
human TGR12 = molecular target: T1, human TGR12 (Homo sapiens, UniProt Q96LB1); test: MAPK (ERK1/2) activation in human TGR12-expressed CHO cells (western blotting); assay type: cell-based; conditions: CHO-TGR12, PTX 0.1 μg/mL 4 hours before the assay
T1 construct: expressed in transfected cells
T1 sequence (Q96LB1 1-330): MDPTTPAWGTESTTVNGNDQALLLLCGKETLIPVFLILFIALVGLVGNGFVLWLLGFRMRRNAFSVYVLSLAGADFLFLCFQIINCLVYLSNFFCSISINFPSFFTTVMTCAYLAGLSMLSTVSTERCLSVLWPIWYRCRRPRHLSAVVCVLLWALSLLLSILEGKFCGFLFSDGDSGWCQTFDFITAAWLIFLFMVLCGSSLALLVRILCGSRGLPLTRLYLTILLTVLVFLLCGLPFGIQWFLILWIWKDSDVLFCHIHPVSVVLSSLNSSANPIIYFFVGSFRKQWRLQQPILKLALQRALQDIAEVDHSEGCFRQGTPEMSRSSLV
Protocol: CHO/dhfr^− cells (hereinafter CHO) were incubated in α-MEM (Invitrogen) containing 10% fetal calf serum. […] CHO-TGR12 was incubated in nucleic acid-free α-MEM (Invitrogen) containing 10% dialyzed fetal calf serum.
The cells were prepared as follows. […] After centrifugation, the deposited cells were suspended in the medium at 2×10^5 cells/ml and 1 mL each was plated in a 12-well cell culture dish. After incubation overnight in a CO2 incubator, the medium was aspirated and washed with PBS. […] Pertussis toxin (hereinafter PTX) was added at a final concentration of 0.1 μg/mL 4 hours before the assay.
Activation of the cells was performed as follows. The medium was aspirated and washed with PBS.
Detection by SDS-PAGE and western blotting was performed as follows. After resolving on a 10% Bis-Tris gel (Invitrogen), the proteins were transferred onto Immune-Blot PVDF membrane (BIO-RAD). The membrane was blocked in Block Ace (Dainippon Pharmaceutical), incubated at room temperature for an hour using a primary antibody (phospho-p42/p44 MAP kinase (Thr202/Thr204) antibody (CST) or p42/p44 MAP kinase antibody (CST)) and then incubated at room temperature for an hour using a secondary antibody (anti-rabbit IgG (CST)). The membrane after the antibody reaction was visualized by chemiluminescence with ECL PLUS (Amersham Biosciences), followed by detection and image analysis using LAS1000 (FUJI FILM).

[1] = molecular target: T2, TGR12-GFP (fused protein of human TGR12 and GFP, encoded by the DNA of SEQ ID NO: 45), stably expressed on … (human, UniProt Q96LB1 1-330); test: competition with 200 pM [125I]-rCST14 (Y0) on CHO-TGR12GFP cells, Hill plot
T2 construct: also called TGR12-GFP expression CHO cell line; not shown: GFP (Wako Pure Chemical) fused after the C-terminus of TGR12
T2 sequence: T1 sequence (Q96LB1 1-330)
Protocol: The binding assay using CHO-TGR12GFP was performed as follows. […] After incubation overnight, the cells were washed 3 times with ice-chilled assay buffer (MEM-α, 20 mM HEPES (pH 7.4), 0.05% BSA) and 250 μL of the assay buffer was added thereto. […] After washing 3 times with 500 μL of the assay buffer, the cells were lysed in 250 μL of 0.5N NaOH and the lysate was recovered for measurement of the radioactivity.
Based on the above, non-specific binding was estimated as the activity of 10 μM rat cortistatin-14 and the IC₅₀ value of each peptide was obtained from Hill plot analysis.

human TGR12 (untagged) = molecular target: T3, human TGR12 (untagged) (human, UniProt Q96LB1 1-330); test: cell-based or functional assay
T3 sequence: T1 sequence (Q96LB1 1-330)

[2] = molecular target: T4, TGR12-GFP (fused protein of human TGR12 and GFP, encoded by the DNA of SEQ ID NO: 31), stably expressed on … (human, UniProt Q96LB1 1-330); test: cell-based or functional assay
T4 sequence: T1 sequence (Q96LB1 1-330)

Molecule: Pertussis toxin [PTX]
attenuation by pretreatment of phosphorylation of ERK1/2 with ATP (human TGR12): not observed | effect of pretreatment on phosphorylation of ERK1/2 by substance P (human TGR12): attenuated

IC50 [1]: 2040 nM | EC50 in the degranulation on LAD 2 (human TGR12 (untagged)): ~105 nM | degranulation of LAD 2 (beta-hexosaminidase release, % of total) at 10 nM (human TGR12 (untagged)): 1.5% | degranulation of LAD 2 (beta-hexosaminidase release, % of total) at 30 nM (human TGR12 (untagged)): 4% | degranulation of LAD 2 (beta-hexosaminidase release, % of total) at 100 nM (human TGR12 (untagged)): 36.7% | degranulation of LAD 2 (beta-hexosaminidase release, % of total) at 300 nM (human TGR12 (untagged)): 63.9% | degranulation of LAD 2 (beta-hexosaminidase release, % of total) at 3 µM (human TGR12 (untagged)): 76.1% | EC50 in the calcium increasing effect on CHO-TGR12 [2]: ~305 nM | maximum activity in the calcium increasing effect (FLIPR), CHO-TGR12, at 0.3 nM [2]: 56 fluorescence intensity | maximum activity in the calcium increasing effect (FLIPR), CHO-TGR12, at 3 nM [2]: 60 fluorescence intensity | maximum activity in the calcium increasing effect (FLIPR), CHO-TGR12, at 30 nM [2]: 16 fluorescence intensity | maximum activity in the calcium increasing effect (FLIPR), CHO-TGR12, at 300 nM [2]: 11200 fluorescence intensity | maximum activity in the calcium increasing effect (FLIPR), CHO-TGR12, at 3000 nM [2]: 24000 fluorescence intensity
B1: human VIP (vasoactive intestinal polypeptide) (peptide, UniProt P01282 125-152, looked up)
peptide: HSDAVFTDNYTRLRKQMAVKKYLNSILN
modifications: not fully specified; ends and bridges not checked
notes: domain: VIP; also called vasoactive intestinal peptide
